Source: the RNAGym collection of RNA variant scans (doi:10.1101/gr.219683.116)

B1: mRNA-splicing (parent)
chain: AGUUGCUGCUGGGAGCUCCAGCACAGUGAAAUGGACAGAAGGGCAGAGCAA

Variants of: B1
Assay: exon inclusion enrichment index; higher = more inclusion; WT1 exon 5 minigene, HEK293

Variant	exon inclusion enrichment index
A23C C24A	0.968
G5C C6G U7C U10C A47U G48U	3.16
U3C U4C G5A C6U U7A G8U C9A	0.481
G5A C6U U7A G8U C9A A35C C36U	0.00346
G5A U7C G8A U10C A40U G41C	3.14
G5U G8U C9U G21A C22A	0.0256
G5A C6U U7A G8U C9A U27C G28A	0.0919
U4A G5C U7C G8A U10C	2.34
G5C C6U G8C C9U U10C C44U	0.527
C6A U7C C9A U10C G26C U27A	3.61
G5C C6U G8C C9U U10C C24A A25G	2.06
A20C	2.03
G5A C6G U7G C9A A35U C36A	0.001
G5A U7C G8A U10C A20G G21A	2.82
G5A U7C G8A U10C A45U G46U	0.84
G5A C6U U7A G8U C9A A30U A31C	0.064
C6A U7A C9A U10A G12C	2.21
G5A U7C G8A U10C G13C A14G	1.71
G5U C6G U7G G8U C9U	0.0864
G5U G8U C9U G28A A29G	0.0263
G5U G8U C9U G28A A29U	0.0186
C6A U7C C9A U10C G38A A39U	0.332
C6A U7C C9A U10C G34U	1.52
G5C C6A U7C G8A U10A A31U	0.094

Variant	exon inclusion enrichment index
G5C C6G U7C U10C C24A A25C	4.48
G5A C6U U7A G8U C9A U10C G11A	0.0351
C6A U7A C9A U10A A25C G26U	1.21
G41C G42U	0.907
C6A U7C C9A U10C G15C	4
G5C C6U G8C C9U U10C A45G G46U	1.68
G5C C6A U7C G8A U10A A30U A31U	0.0758
G5A C6G U7G C9A G28U A29U	0.000755
C6A U7A C9A U10A A47U G48A	0.579
C6A U7C G8U C9A U10A	0.176
U7A C9A U10C	1.94
G5A C6G U7G C9A A45C G46U	0.0014
G5A C6U U7A G8U C9A U17C C18G	0.0591
G5C C6U G8C C9U U10C G41C G42C	2.99
C6A U7C C9A U10C A14G G15C	2.29
G5C C6G U7C U10C A39U A40C	3.55
C6A U7A C9A U10A A14C G15U	0.408
C6A U7C C9A U10C C18A C19G	0.998
G5C C6A U10C	1.97
U3A C6A U7A C9A U10A	0.664
G5C C6A U7C G8A U10A U17G C18A	0.109
U3G U4G C6A U7A C9A U10A	0.0489
G5C C6U G8C C9U U10C A30C A31U	2.1
C6A U7C C9A U10C A25U	3.47

Variant	exon inclusion enrichment index
G5A C6U U7A G8U C9A C24U A25U	0.0538
G5A C6G U7G C9A C44U A45G	0.00135
G5A U7C G8A U10C A23U C24A	1.02
C6A U7C C9A U10C A39G A40G	0.569
G5A C6U U7A G8U C9A G26U U27C	0.536
C6A U7A C9A U10C G11U	3.37
G5A C6U U7A G8U C9A G13A A14G	0.0895
G5A U7C G8A U10C U32A	1.87
G5C C6A U7C G8A U10A G42C	0.501
G5A C6G U7G C9A G28A A29G	0.000786
G5U G8U C9U G43A C44U	0.177
A29G	0.272
A29U	0.0295
C6A U7A C9A U10A G33C	1.04
G5U C6G U7C G8A U10C	2.27
G5C C6U G8C C9U U10C C36U A37C	1.55
G5C C6U G8C C9U U10C G43C C44G	4.6
G5C C6G U7C U10C C36U A37G	2.77
G42U	0.329
G5U G8U C9U G11C G12U	0.0163
G5A C6A G8C C9U U10C	0.618
C6A U7A C9A U10A A30U A31C	0.579
G5U G8U C9U U10C G11U	0.279
G5U G8U C9U A31G U32A	1.22

Variant	exon inclusion enrichment index
G5A C6U U7A G8U C9A A40C G41U	0.0189
G5A C6G U7G C9U U10C	0.00564
C6A U7C C9A U10C C36U A37U	1.97
A14G G15U	0.0597
G5C C6G G8A U10A	0.226
G5A C6U U7A G8U C9A U32A G33A	0.00941
G33C	0.179
G5C C6A U7C G8A U10A G28U A29U	0.00263
G5A C6G U7G C9G	0.00209
G5A C6U U7A G8U C9A U10G G11C	0.022
C6A U7G G8A C9A U10C	0.734
G5C C6A U7C G8A U10A G21U C22U	0.011
G5U G8U C9A U10G	0.0162
G5C C6G U7C U10C C24U A25C	4.56
G5C C6G U7C U10C A35G C36A	2.07
G5A U7C G8A U10C U17G C18G	1.96
G5C C6A U7C G8A U10A G11U G12U	0.037
C6A U7C C9A U10C U27C G28A	3.15
G5C C6U G8C C9U U10C C36A	1.44
G5A C6U U7A G8U C9A A40U G41C	0.359
G5A C6G U7G C9A U27G G28C	0.00084
U4G G5C C6A U7C G8A U10A	0.0964
G5C C6U G8C C9U U10C G42A G43A	4.1
